We go through 1 molecule from paper PMC6503952, “Nuclear actin interactome analysis links actin to KAT14 histone acetyl transferase and mRNA splicing” (Journal of Cell Science, 2019).

The target in the assay is Rabbit skeletal muscle actin (rabbit, UniProt P68135 1-377). Kind of assay: pull-down; purified His–KAT14 or His–GST (from a lysate) held on Ni-NTA agarose beads, washed with up to 500 mM NaCl, then incubated with a 4-fold amount of rabbit skeletal muscle actin in G-buffer (5 mM Tris-HCl pH 7.5, 0.2 mM ATP, 0.2 mM CaCl2, 0.5 mM DTT) for 3 h at +4°C; western blot. The conditions noted are these: both partners purified.

B1: Recombinant human His-KAT14 (enzyme)
chain: MDSSIHLSSLISRHDDEATRTSTSEGLEEGEVEGETLLIVESEDQASVDLSHDQSGDSLNSDEGDVSWMEEQLSYFCDKCQKWIPASQLREQLSYLKGDNFFRFTCSDCSADGKEQYERLKLTWQQVVMLAMYNLSLEGSGRQGYFRWKEDICAFIEKHWTFLLGNRKKTSTWWSTVAGCLSVGSPMYFRSGAQEFGEPGWWKLVHNKPPTMKPEGEKLSASTLKIKAASKPTLDPIITVEGLRKRASRNPVESAMELKEKRSRTQEAKDIRRAQKEAAGFLDRSTSSTPVKFISRGRRPDVILEKGEVIDFSSLSSSDRTPLTSPSPSPSLDFSAPGTPASHSATPSLLSEADLIPDVMPPQALFHDDDEMEGDGVIDPGMEYVPPPAGSVASGPVVGVRKKVRGPEQIKQEVESEEEKPDRMDIDSEDTDSNTSLQTRAREKRKPQLEKDTKPKEPRYTPVSIYEEKLLLKRLEACPGAVAMTPEARRLKRKLIVRQAKRDRGLPLFDLDQVVNAALLLVDGIYGAKEGGISRLPAGQATYRTTCQDFRILDRYQTSLPSRKGFRHQTTKFLYRLVGSEDMAVDQSIVSPYTSRILKPYIRRDYETKPPKLQLLSQIRSHLHRSDPHWTPEPDAPLDYCYVRPNHIPTINSMCQEFFWPGIDLSECLQYPDFSVVVLYKKVIIAFGFMVPDVKYNEAYISFLFVHPEWRRAGIATFMIYHLIQTCMGKDVTLHVSASNPAMLLYQKFGFKTEEYVLDFYDKYYPLESTECKHAFFLRLRR
notes: KAT14, human; also called His-tagged KAT14; source: Sf9 (MultiBac baculovirus), purified (Ni-NTA, Superdex 200)
Consider B1, for which the binding result is on record as “binds”.
